Measured values: US20110189093A1 (PROSCAN RX PHARMA, published 2011)

B1: antibody PSf47.1 (antibody, V domains shown)
VH: EVKLQESGPDLVKPGASVKVSCKASGYTFTVYVIHWVIQKPGQGLEWIGYINPYNDGAEYNENFKGKATLTSDKSSSTAYMELSSLTSEDSAVYYCTRGENYYTSRYGFFDVWGQGTTVTVS
VL: DILMPQSPSSLAVSAGEKVTMSCKSSQSLLNSRTRKNYLAWYQQKLGQSPKLLIYWASTRESGVPDRFTGSGSGTDFTLTISSVQAEDLAVYYCKQSYNFITFGAGTKLELKR
notes: also called mAb PSf47.1
B2: antibody PSf34.1 (antibody, V domains shown)
VH: EVQLEESGAELVKPGASVKLSCTASGFYIKDTYIHWVKQRPEEVLEWIGGIDPADGDTRYDPKFQGKATITADTSSNSAYLHLTSLTSEDTAVYFCARELAYWGAGTTVTVS
VL: not shown
notes: also called mAb PSf34.1
B3: antibody PSf42.3 (antibody, V domains shown)
VH: EVQLQQSGAELAKPGASVKLSCTGSGFNIKDTYMHWVKQRPEQGLEWIGGIDPETGNTKFDPRFQDKATITSDTSSNTVLLQLSSLTSEDTAVYYCANLGRPFAHWGQGTTVTVS
VL: HSADPVSISCKSSQSLLHRDGKTYLNWVFQRPGQSPQRLIYLVSLVDSGVPDRFTGSGSGTDFTLKINRVEAEDLGVYYCWQGTHFPRTFGGGTKLEIKR
B4: antibody PSf42.4 (antibody, V domains shown)
VH: EVKLQQSGAELVKPGASVKLSCTASGFSIRDTYMHWVRQRPEQGLEWITGIDPENGNSKYAPRFQDKATIIADTSSNTVHLQLDTLTSEDTAVYYCTRELAYWGQGTTVTVS
VL: DILMTQSPLTLSVIIGQPASFSCKSSHSLLHRDGRTYLNWLLQRPGQSPQRLIYLVSKLDSGVPDRFTGSGSGTDFTLKISRVEAEDLGVYYCWQGTHFPRTFGGGTKLEIKR
B5: antibody PSf42.1 (antibody, V domains shown)
VH: EVQLEESGAEFVRPGAAVKLSCTVSGLNIKDSYLHWVKQRPEQGLEWIGGIDPANGDVEYDPKFQGKAAITADTSSNTAYLRLSSLTSEDTAVYYCAPFPYWGAGTTVTVS
VL: B4 VL

Molecular target: T1, prostate specific membrane antigen (PSMA) on LNCaP cells (human, UniProt Q04609 1-750)
T1 construct: also called PSMA-expressing cells
T1 sequence (Q04609 whole entry): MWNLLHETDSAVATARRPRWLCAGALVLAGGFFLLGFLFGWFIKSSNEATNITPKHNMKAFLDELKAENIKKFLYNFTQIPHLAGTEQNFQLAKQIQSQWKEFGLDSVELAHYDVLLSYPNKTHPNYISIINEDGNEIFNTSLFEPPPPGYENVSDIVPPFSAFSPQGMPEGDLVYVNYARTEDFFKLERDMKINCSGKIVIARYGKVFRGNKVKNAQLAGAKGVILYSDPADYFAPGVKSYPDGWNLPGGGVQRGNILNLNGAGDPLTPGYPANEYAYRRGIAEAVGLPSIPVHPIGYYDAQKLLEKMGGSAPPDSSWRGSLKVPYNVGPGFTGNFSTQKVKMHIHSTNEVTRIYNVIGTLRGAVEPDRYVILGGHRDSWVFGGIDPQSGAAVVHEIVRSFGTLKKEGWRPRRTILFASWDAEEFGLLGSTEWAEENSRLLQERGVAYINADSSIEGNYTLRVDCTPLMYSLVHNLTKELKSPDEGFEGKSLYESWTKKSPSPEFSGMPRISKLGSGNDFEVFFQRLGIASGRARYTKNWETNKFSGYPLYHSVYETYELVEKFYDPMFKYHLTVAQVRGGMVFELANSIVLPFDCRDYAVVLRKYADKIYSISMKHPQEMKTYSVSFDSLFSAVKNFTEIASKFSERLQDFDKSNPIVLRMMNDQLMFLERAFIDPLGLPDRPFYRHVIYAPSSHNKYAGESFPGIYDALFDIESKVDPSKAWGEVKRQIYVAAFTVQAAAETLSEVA
Assay: saturation binding on whole LNCaP cells, detected with 125I goat anti-mouse IgG
Experimental: Antibody binding assay: Saturation binding studies were performed on whole cells with purified anti-PSMA MAb followed by detection of cellbound MAb using ¹²⁵I-labeled goat anti-mouse IgG. Briefly, nearly confluent LNCaP cells were rinsed with ice-cold PBS and scraped in PBS containing the protease inhibitor cocktail described above. Cells (7.5×10⁶ per tube) were incubated with 100 μL of antibody diluted in complete RPMI to various concentrations for 1 h at room temperature. […] Following removal of unbound secondary antibody by centrifugation, the radioactivity associated with the cell pellet was determined using a gamma counter. Non-specific binding was determined in the presence of a 100-fold molar excess of the antibody antigen PSMA₄₉₀₋₅₀₀. […] For these experiments, a parallel sample in which the primary MAb was replaced by diluent served as a control for background binding of the secondary antibody and was less than 0.5%. Counts were analyzed by non-linear regression of total binding (Y) according to the law of mass action using the formula Y=Bmax*X/(Kd+X), where Bmax, Kd, and X represent the maximal binding, the concentration of ligand at half maximal binding, and the concentration of primary antibody, respectively. The ¹²⁵I-labeled goat anti-mouse IgG used in these experiments was radio-iodinated using the chloramine T method. Briefly, 10 μg of goat anti-mouse IgG whole molecule was incubated with 300 pmol of chloramine T and 90 μCi of [¹²⁵I] sodium iodide in a final volume of 25 μL containing 0.5 M sodium phosphate (pH 7.5) for 20 min at room temperature before quenching the reaction with 100 μL of sodium metabisulfite at 2.6 mg/mL in 0.5 M sodium phosphate buffer (pH 7.5). The labeled antibody was purified from free iodide by gel filtration on Sephadex G25. The amount of free iodide contaminating the labeled antibody was evaluated by ITLC-SG and never exceeded 1%.

| Binder | Bmax | Kd |
| --- | --- | --- |
| B1 | 4.6 pmol/mg | – |
| B2 | 4.8 pmol/mg | – |
| B3 | 4.9 pmol/mg | 20.4 nM |
| B4 | 5.1 pmol/mg | 34.1 nM |
| B5 | 2.8 pmol/mg | 14.7 nM |
